Experimental data from patent publication US20200223906A1 (Adimab, published 2020).
Numbering of substitutions follows the chain as printed.

B1: ADI-18968 (antibody, V domains shown)
VH: EVQLVESGPGLVKPSQTLSLTCTVSDVLISSGDYYWSWIRQSPGKGLEWLGYIYYTGKTKYNPSLESRITMSVDTSKNQFSLRLSSVTAADTAVYFCTRDLGYSTSSPSFYYGMDVWGQGTTVTVSS
VL: EIVLTQSPATLSLSPGERATLSCRASQSVGTYLAWYQQKPGQAPRLLIYDASYRVTGIPARFSASGSATDFTLTISSLEPEDFAVYFCQQRTNWPITFGQGTRLEIK
notes: full-length IgG from yeast
B2: ADI-18947 (antibody, V domains shown)
VH: QVQLVQSGGGVVQSGRSLRLSCAASGFTFSDNGMHWVRQAPGKGLEWVAGIFHDGSNKQYAESVKGRFIISRDNSKNTLYLQMNSLRAEDTALYFCARAPYDIWSGYCLDYWGQGTLVTVSS
VL: DIRMTQSPATLSLSPGESATLSCRASQSVINNLAWYQQRPGQAPRLLIYGASTRATGIPARFSGSGSETEFTLTISSLQSEDFAVYHCQQYSIWPQTFGQGTKLEIK
notes: full-length IgG from yeast
B3: ADI-18896 (antibody, V domains shown)
VH: B2 VH with Q1E, V5L, Q6E, H53Y, E62D, I69T, N77S, L93V, F95Y
VL: B2 VL with R3Q, S7T, L13M, S18R, I30N
notes: full-length IgG from yeast
B4: ADI-18899 (antibody, V domains shown)
VH: B2 VH with Q1E, Q6E, H53Y, E62D, I69T, N77S, L93V, F95Y
VL: B2 VL with M4L, L13M, S18R, I30N, L104V, E105D
notes: full-length IgG from yeast
B5: ADI-18955 (antibody, V domains shown)
VH: B2 VH with Q1E, Q6E, T28I, H53Y, E62D, I69T, N84K, L93V, F95Y
VL: B2 VL with R3Q, M4V, L13M, S18R, I30N, L104V
notes: full-length IgG from yeast; also called Antibody Number 306; Ab # 306
B6: ADI-18948 (antibody, V domains shown)
VH: EVQLLESGGGVVQSGRSLRLSCVASGFTFSDSGMHWVRQAPGKGLEWVAGLFYDGSNKQYADSVKGRFTISRDNSKSTLYLQMNSLRAEDTAVYYCARAPYDIWSGYCLDYWGQGTLVTVSS
VL: B2 VL with D1E, R3V, M4L, S12Y, L13M, S18R, I30N
notes: full-length IgG from yeast; also called Antibody Number 300; Ab # 300
B7: ADI-18918 (antibody, V domains shown)
VH: QVQLVQSGAEVKKPGESLKISCKGSGYSFSSFWIGWVRQMPGKGLEWMGIIYPGDSDTRYSPSFQGQVTMSADTSINTAYLQWNSVKASDTAIYYCARLPVGSYYYFNLWGRGTLVTVSS
VL: EIVMTQSPATLSVSPGESATLFCRASQSISSDLAWYQQRPGQAPRLLIYDASTRATGVPARFSATGSEAEFTLTISGLQSEDFAVYYCQQYNNWLSWTFGQGTKLEIK
notes: full-length IgG from yeast
B8: ADI-18895 (antibody, V domains shown)
VH: QVQLVQSGPEVKKTRESLKIYCKGSGYSFISHWIGWVRQKPGKGLEWMGIIYPGDSDTRYSPSFQGQVAISADKSINTAYLQWSSLKSSDTAIYYCASVMLRGIMWGQGTLVTVSS
VL: DIRLTQSPSSLSASVGDRVTITCQASQDISKYLNWYQQKPGKAPKLLIYDASNLETGVPSRFSGSGSGTDFTFTISSLQPEDIATYYCQPYDNLPPPLTFGGGTKLEIK
notes: full-length IgG from yeast; also called Antibody Number 250; Ab # 250
B9: ADI-18924 (antibody, V domains shown)
VH: QVQLVQSGAEVKKPGESLKISCQGSGYSFSSFWIVWVRQMPGKGLEWMGSIYPGDSDTRYTPSFQGQVTISADKSTSTAYLQWNSLKPSDTAMYYCARCSLSCDYYGVNLWGQGTTVTVSS
VL: QSVVTQPPSVSGAPGQRVTISCSGSSSNIGARSDVHWYQQLPGKAPKLLIYGNTNRPLGVPDRFSGSTSGTSASLAISGLQAEDEGYYYCQSYDSSLSGFYVFGTGTKLTVL
notes: full-length IgG from yeast
B10: ADI-18876 (antibody, V domains shown)
VH: QVQLQESGPGLVKPSQTLSLTCTVSGPSISSGDYYWTWIRQPPGKGLEWIGYIYNSGSTDYNPSLKSRITMSLDRSKNQFSLNLSSVTAADTAVYFCARDVGTLVLPTVAYYYGMDVWGQGTTVTVSS
VL: EIVLTQSPGTLSLSPGERATLSCRASESISSSYLAWYQQKPGQAPRLLIYDASSRATGIPDRFSGSGSGTDFTLTISSLEPEDFAVYYCQQYGSSPLVTFGPGTKVDIK
notes: full-length IgG from yeast
B11: ADI-18922 (antibody, V domains shown)
VH: QVQLQESGPGRVKPSETLSLTCSVADGSISSGHYYWGWVRQPPGKGLEWIATIHDSGATYYNPSLQSRVTISVDTSKNQFSLKVNSVTAADTAVYYCASRRGSGWFFDSWGQGTLVTVSS
VL: DIVLTQSPATLSVSPGERVTLSCRASHSVNYNLAWYQQKPGQAPRLLIYGSSTRATGLPARFSGSGSGTEFTLTISSLQSEDFAIYYCQQYNNWPPGGTFGQGTKVEIK
notes: full-length IgG from yeast; also called Antibody Number 276; Ab # 276
B12: ADI-18911 (antibody, V domains shown)
VH: QVQLVESGAEARKPGESLKISCKASGYSFTNYWIGWVRQMPGKGLEWMGVIYPADSDTRYSPSFKGQVTISADKSISTAYLQWTRLKASDTAVYFCARLGIGAAARNYWGQGTLVTVSS
VL: DIQVTQSPSSLSASVGDRVTITCQASQDISDSLNWYQQKPGKAPNLLIYDASKSETGVPSRFSGSGSGTDFTFTISSLQPEDLATYYCLQFDNLPPTFGQGTRLEIK
notes: full-length IgG from yeast
B13: ADI-18938 (antibody, V domains shown)
VH: EVQLLESGGGLVQPGGSLRLSCAASGFTFSNYWMHWVRQAPGKGLVWVSRISGDGSDTTYADSVEGRFTISRDNARSTLYLQLNSLTGDDTAVYYCARDLWTTSPYFDLWGQGTLVTVSS
VL: EIVLTQSPGTLSASIGDRVTITCRASQSLNGWLAWYQQKPGKAPRLLIYKSSSLESGVPSRFSGSASGTEFTLTISSLQPDDFATYYCQQYNSWAFGQGTKVDVK
notes: full-length IgG from yeast; also called Antibody Number 291; Ab # 291
B14: ADI-18942 (antibody, V domains shown)
VH: QVQLQESGPGRVKPSQTLSLTCTVSGVSVTINDYYWTWLRQSPGKGLEWIGNIYNSGSTYQNPSLQSRVTMSVDTAKNHFSLKLTSVTAADTAVYYCARDLGTANNYYFGMDVWGLGTTVTVSS
VL: EIVMTQSPATLSLSPGERATLSCRASQSVSTYLAWYQQKPGQAPRLLIYNGSNRVTGTPARFSGSGSGTDFTLTISSVEPEDFAVYYCQQRSNWPPYTFGQGTKVEIK
notes: full-length IgG from yeast; also called Antibody Number 295; Ab # 295
B15: ADI-18946 (antibody, V domains shown)
VH: QVQLVQSGGGVVQPGRSLRLSCAASGFTFSDYAMHWVRQAPGKGLEWVAIISYDANNKYYADSVKGRFTISRDNSKNTVYLQMNSLRPEDTAVYYCAKEEWLVPAYWGQGILVTVSS
VL: QSVLTQPASVSGSPGQSITISCTGTSSDVGGYNYVSWYQQHPGKAPKLLIYEVSNRPSGVSNRFSGSKSGNTASLTISGLQPEDEADYYCSSYSTNSAPFGTGTKLTVL
notes: full-length IgG from yeast

molecular target: RSV F protein of subtype A (strain A2) on recombinant mKate-RSV virus (Respiratory syncytial virus subtype A …, UniProt P03420 26-574); experiment: cell-based or functional assay

Row | Binder | Neut IC50 (µg/ml) subtype A
1 | B1 | 0.909 µg/mL
2 | B2 | 1.3 µg/mL
3 | B3 | 1.1 µg/mL
4 | B4 | 0.742 µg/mL
5 | B5 | 1.93 µg/mL
6 | B6 | 1.12 µg/mL
7 | B7 | 0.377 µg/mL
8 | B8 | 2.3 µg/mL
9 | B9 | 0.572 µg/mL
10 | B10 | 0.037 µg/mL
11 | B11 | > 10 µg/mL
12 | B12 | 0.301 µg/mL
13 | B13 | 0.837 µg/mL
14 | B14 | 0.374 µg/mL
15 | B15 | 0.093 µg/mL

molecular target: RSV F protein of subtype B (18537) on recombinant mKate-RSV virus (Respiratory syncytial virus subtype B …, UniProt P13843 26-574); experiment: cell-based or functional assay

Row | Binder | Neut IC50 (µg/ml) subtype B
16 | B1 | 0.541 µg/mL
17 | B2 | 3.6 µg/mL
18 | B3 | 4.72 µg/mL
19 | B4 | 2.7 µg/mL
20 | B5 | 3.12 µg/mL
21 | B6 | 4.35 µg/mL
22 | B7 | 4.59 µg/mL
23 | B8 | > 10 µg/mL
24 | B9 | 1.07 µg/mL
25 | B10 | 0.179 µg/mL
26 | B11 | 5.05 µg/mL
27 | B12 | 4.85 µg/mL
28 | B13 | 4.25 µg/mL
29 | B14 | 0.614 µg/mL
30 | B15 | 0.227 µg/mL

molecular target: T1, RSV F subtype A, furin-cleaved ectodomain stabilized in the prefusion conformation (DS-Cav1) (Respiratory syncytial virus subtype A, UniProt P03420 26-524); experiment: BLI, IgG on AHQ sensor, 100 nM antigen
T1 construct: extracellular domain; Trimeric soluble antigen; also called Prefusion subtype A

Row | Binder | Kd
31 | B1 | 1.98 nM
32 | B2 | 2.45 nM
33 | B3 | 2.27 nM
34 | B4 | 1.92 nM
35 | B5 | 0.599 nM
36 | B6 | 4.55 nM
37 | B9 | 6.48 nM
38 | B10 | 0.707 nM
39 | B11 | 3.47 nM
40 | B13 | 0.165 nM
41 | B14 | 0.865 nM
42 | B15 | 0.158 nM

molecular target: T2, RSV F subtype A, furin-cleaved ectodomain stabilized in the postfusion conformation (F ΔFP) (Respiratory syncytial virus subtype A, UniProt P03420 26-109; P03420 147-524); experiment: BLI, IgG on AHQ sensor, 100 nM antigen
T2 construct: extracellular domain; Trimeric soluble antigen; also called Postfusion subtype A

Row | Binder | Kd
43 | B1 | 0.438 nM
44 | B2 | 0.296 nM
45 | B3 | 0.279 nM
46 | B4 | 0.266 nM
47 | B5 | 0.256 nM
48 | B6 | 0.257 nM
49 | B7 | 0.567 nM
50 | B8 | 2.37 nM
51 | B9 | 0.411 nM
52 | B10 | 1.71 nM
53 | B11 | 0.322 nM
54 | B12 | 0.353 nM
55 | B13 | 0.216 nM
56 | B14 | 0.281 nM
57 | B15 | 0.206 nM

molecular target: T3, RSV F subtype B, furin-cleaved ectodomain stabilized in the prefusion conformation (DS-Cav1) (Respiratory syncytial virus subtype B); experiment: BLI, IgG on AHQ sensor, 100 nM antigen
T3 construct: extracellular domain; Trimeric soluble antigen; also called Prefusion subtype B

Row | Binder | Kd
58 | B1 | 0.602 nM
59 | B2 | 2.2 nM
60 | B3 | 1.81 nM
61 | B4 | 1.59 nM
62 | B5 | 2.37 nM
63 | B6 | 2.1 nM
64 | B10 | 0.316 nM
65 | B11 | 5.27 nM
66 | B13 | 0.15 nM
67 | B14 | 0.512 nM
68 | B15 | 0.157 nM

molecular target: T4, RSV F subtype B, furin-cleaved ectodomain stabilized in the postfusion conformation (F ΔFP) (Respiratory syncytial virus subtype B); experiment: BLI, IgG on AHQ sensor, 100 nM antigen
T4 construct: extracellular domain; Trimeric soluble antigen; also called Postfusion subtype B

Row | Binder | Kd
69 | B1 | 0.305 nM
70 | B2 | 0.282 nM
71 | B3 | 0.27 nM
72 | B4 | 0.251 nM
73 | B5 | 0.25 nM
74 | B6 | 0.247 nM
75 | B7 | 0.409 nM
76 | B8 | 0.486 nM
77 | B9 | 0.321 nM
78 | B10 | 0.179 nM
79 | B11 | 0.287 nM
80 | B12 | 0.28 nM
81 | B13 | 0.168 nM
82 | B14 | 0.258 nM
83 | B15 | 0.166 nM
